Assay results as given in publication PMC2841647 (PLoS ONE, 2010).

Legend:
human TrkB receptor = molecular target: T1, human TrkB receptor (Homo sapiens, UniProt Q16620); test: KIRA-ELISA (TrkB tyrosine phosphorylation) in TetOn-rhTrkB CHO cells; assay type: cell-based; settings: TetOn-rhTrkB cells, with or without 4 nM BDNF
T1 construct: expressed in transfected cells
Excerpt: (§1) The human recombinant TrkB receptor was fluorescently tagged at its C-terminus with the Enhanced cyan fluorescent protein (rhTrkB-ECFP) by cloning the full human TrkB sequence (kindly provided by G. M. Brodeur) into the pECFP-N1 expression vector (Clontech). For inducible expression, rhTrkB-ECFP was subcloned into the tetracycline-responsive (TetOn) vector pTRE2 (Clontech). Chinese Hamster Ovary cells stably expressing rhTrkB-ECFP (TetOn-rhTrkB cells), were produced by transfection of the pTRE2-rhTrkB-ECFP plasmid into CHO-K1 TetOn cells (Clontech) followed by clone selection in 0.25 mg/ml hygromycin B (Invitrogen) and 0.1 mg/ml geneticin (G418; Invitrogen). Resistant cells were selected based on both fluorescence intensity and KIRA-ELISA profile after an overnight incubation in presence of 1000 ng/ml doxycycline (Clontech). Cortical neurons were prepared and cultured from E16 mouse embryos as described previously. The nnr5 PC12-TrkA, nnr5 PC12-TrkB and nnr5 PC12-TrkC cells (kindly provided by M. V. Chao) are NGF non-responding mutant PC12 cells stably transfected with TrkA, TrkB and TrkC cDNA, respectively.
(§2) TrkB activity was quantified using the previously described KIRA-ELISA assay with slight modifications. Cortical neurons were seeded on polyornithin-coated flat-bottom 96-well culture plates (12×10^4 cells per well) and cultured eight days at 37°C in 5% CO2. TetOn-rhTrkB cells were seeded on flat-bottom 96-well culture plates (4×10^4 cells per well) and incubated overnight with 1000 ng/ml doxycycline (Figs. S1,S2) except when indicated. Fluorescence levels in TetOn-rhTrkB cells were verified before each assay. […] Assay was stopped by removing the medium on ice and membranes were solubilized using KIRA-ELISA solubilization buffer (NaCl 150 mM, Hepes 50 mM, Triton X-100 0.5%, thimerosal 0.01%, sodium orthovanadate 2 mM, supplemented with a cocktail of protease inhibitors) for 1 h at room temperature. Solubilized membranes were transferred for 2 h at room temperature onto ELISA microtiter plate (Nunc Maxisorp) pre-coated overnight at 4°C with appropriate antibodies [polyclonal anti-GFP (1∶5000, Clontech) for TetOn-rhTrkB, polyclonal anti-TrkB (1 µg/ml, Upstate) for cultured neurons and brain slices, for phosphorylation assays; monoclonal anti-GFP (1∶3000, Chemicon) for TetOn-rhTrkB, monoclonal anti-TrkB (1∶1000, BD Biosciences) for cultured neurons and brain slices, for total TrkB quantification]. […] Absorbance was read at 450 nm after addition of 3,3′,5′,5-tetramethyl-benzidine substrate (Sigma) and acidification with 1N hydrochloric acid.
(§3) Concentration-response and competition curves were obtained using an iterative least-squares method derived from that of Parker & Waud (1971). […] Concentration-response curves and Eadie-Hofstee plots were analyzed using two-way ANOVA. Significance over time in locomotor activity studies was given using two-way ANOVA followed by Bonferroni's post-hoc test. […] One-way ANOVA followed by post-hoc Dunnett's test was used to evaluate statistical significance compare to saline group in EPM and FST procedures. n represents the number of independent experiments.

[1] = molecular target: T2, native TrkB receptors in cortical neurons (Mus musculus, UniProt P15209); test: KIRA-ELISA (TrkB tyrosine phosphorylation) in primary cortical neurons; assay type: cell-based; settings: cortical neurons, with or without 4 nM BDNF
T2 construct: cortical neurons naturally express TrkB receptors; endogenous in cells; host or cells: primary cortical neurons from E16 mouse embryos
T2 sequence (P15209 32-821): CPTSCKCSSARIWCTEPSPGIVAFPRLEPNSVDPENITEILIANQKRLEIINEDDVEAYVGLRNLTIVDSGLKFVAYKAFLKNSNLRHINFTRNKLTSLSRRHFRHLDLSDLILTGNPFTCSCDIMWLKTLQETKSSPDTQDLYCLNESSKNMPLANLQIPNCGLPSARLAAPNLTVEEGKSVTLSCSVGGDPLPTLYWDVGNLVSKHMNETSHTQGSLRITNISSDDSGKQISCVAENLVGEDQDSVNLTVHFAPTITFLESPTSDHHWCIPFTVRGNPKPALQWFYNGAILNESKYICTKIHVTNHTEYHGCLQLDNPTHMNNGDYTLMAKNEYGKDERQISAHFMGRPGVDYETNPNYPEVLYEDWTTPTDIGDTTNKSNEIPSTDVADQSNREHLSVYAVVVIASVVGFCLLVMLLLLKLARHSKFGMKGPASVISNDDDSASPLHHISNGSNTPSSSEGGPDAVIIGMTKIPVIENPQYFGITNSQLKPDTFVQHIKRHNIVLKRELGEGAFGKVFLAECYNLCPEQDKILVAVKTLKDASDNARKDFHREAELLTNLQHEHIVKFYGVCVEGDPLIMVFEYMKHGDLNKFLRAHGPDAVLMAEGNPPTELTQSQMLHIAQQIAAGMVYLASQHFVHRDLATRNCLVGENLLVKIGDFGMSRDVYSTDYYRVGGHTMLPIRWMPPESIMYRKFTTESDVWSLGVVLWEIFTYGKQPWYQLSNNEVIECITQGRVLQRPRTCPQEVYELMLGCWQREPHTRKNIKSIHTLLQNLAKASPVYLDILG
Excerpt: as §1, §2, §3

TrkB in brain slices = molecular target: T3, TrkB in brain slices (Mus musculus, UniProt P15209); test: KIRA-ELISA in brain slices incubated with peptide; assay type: cell-based; settings: 1 µM directly added to the slice, BDNF 4 nM
T3 construct: KIRA-ELISA analysis of brain TrkB receptors from mice; from tissue; host or cells: adult Swiss mouse brain, 300-µm coronal slices
T3 sequence (P15209 32-821): as above
Experimental: TrkB activity was quantified using the previously described KIRA-ELISA assay with slight modifications. Cortical neurons were seeded on polyornithin-coated flat-bottom 96-well culture plates (12×10^4 cells per well) and cultured eight days at 37°C in 5% CO2. TetOn-rhTrkB cells were seeded on flat-bottom 96-well culture plates (4×10^4 cells per well) and incubated overnight with 1000 ng/ml doxycycline (Figs. S1,S2) except when indicated. Fluorescence levels in TetOn-rhTrkB cells were verified before each assay. […] Solubilized membranes were transferred for 2 h at room temperature onto ELISA microtiter plate (Nunc Maxisorp) pre-coated overnight at 4°C with appropriate antibodies [polyclonal anti-GFP (1∶5000, Clontech) for TetOn-rhTrkB, polyclonal anti-TrkB (1 µg/ml, Upstate) for cultured neurons and brain slices, for phosphorylation assays; monoclonal anti-GFP (1∶3000, Chemicon) for TetOn-rhTrkB, monoclonal anti-TrkB (1∶1000, BD Biosciences) for cultured neurons and brain slices, for total TrkB quantification]. […] Absorbance was read at 450 nm after addition of 3,3′,5′,5-tetramethyl-benzidine substrate (Sigma) and acidification with 1N hydrochloric acid.

[2] = Brain localization after intravenous injections (immunohistochemistry); assay type: in vivo, mouse; settings: mice; four hours after the last intravenous injection; cortex, hippocampus, striatum, nucleus accumbens
Experimental: Mice were injected twice with 200 µg of biotinylated tat-cyclotraxin-B. […] Brains were postfixed for 1 h in 4% paraformaldehyde and cut in 40-µm sections with a vibratome. Sections obtained at the same levels as for in vivo KIRA-ELISA analysis (see Fig. S8) were rinsed in PBS and incubated in TBS containing 0.05% Tween-20 with VectaStain ABC Elite kit (Vector Laboratories). […] Non-injected mice were used as negative controls for endogenous biotin.

mice = test: Elevated plus-maze (EPM); assay type: in vivo, mouse; settings: vs saline
Experimental: Mice were treated as described above before being subjected to behavioral studies. Predictive estimation for anxiolytic properties of tat-cyclotraxin-B was assessed using open field and elevated plus-maze (EPM). Antidepressant-like action of tat-cyclotraxin-B was assessed with the forced-swim test (FST). Effects of acute treatment with tat-cyclotraxin-B on spontaneous locomotion, exploration and reactivity to a novel open field was assessed in plexiglas activity chambers (Med Associates; 45×45×31 cm). Mice were placed into the center of the open field, and activity was recorded for 30 min. Testing took place under bright ambient light conditions to increase the anxiety component of the center areas of the field (defined as the central 15×15 cm portion). Mice subjected to EPM received a double 90-interval i.v. injection of tat-cyclotraxin-B or saline buffer before being placed on the platform of the EPM and assessed for 5 min (26×5×36 cm). The diazepam control group consisted of saline buffer double-treated mice that further received a 30-min i.p. injection of diazepam (1 mg/kg). Mice were assessed for number of entries and amount of time spent in open versus closed arms. The FST procedure was applied to treated mice as described by Porsolt et al. (see ref. [60]). Mice were dropped individually into glass cylinder (height, 25 cm; diameter, 10 cm) containing 10 cm water height, maintained at 23–25°C. Animals were tested for a total of 6 min. The total time of swimming, the number of climbing attempts and the time of immobility was recorded during the last 4 min of the session, after 2 min of habituation. The paroxetine control group consisted of saline buffer double-treated mice that further received a 30-min i.p. injection of paroxetine (2 mg/kg). Behaviors were recorded on videotape and scored blind.

T1 sequence (Q16620 32-822): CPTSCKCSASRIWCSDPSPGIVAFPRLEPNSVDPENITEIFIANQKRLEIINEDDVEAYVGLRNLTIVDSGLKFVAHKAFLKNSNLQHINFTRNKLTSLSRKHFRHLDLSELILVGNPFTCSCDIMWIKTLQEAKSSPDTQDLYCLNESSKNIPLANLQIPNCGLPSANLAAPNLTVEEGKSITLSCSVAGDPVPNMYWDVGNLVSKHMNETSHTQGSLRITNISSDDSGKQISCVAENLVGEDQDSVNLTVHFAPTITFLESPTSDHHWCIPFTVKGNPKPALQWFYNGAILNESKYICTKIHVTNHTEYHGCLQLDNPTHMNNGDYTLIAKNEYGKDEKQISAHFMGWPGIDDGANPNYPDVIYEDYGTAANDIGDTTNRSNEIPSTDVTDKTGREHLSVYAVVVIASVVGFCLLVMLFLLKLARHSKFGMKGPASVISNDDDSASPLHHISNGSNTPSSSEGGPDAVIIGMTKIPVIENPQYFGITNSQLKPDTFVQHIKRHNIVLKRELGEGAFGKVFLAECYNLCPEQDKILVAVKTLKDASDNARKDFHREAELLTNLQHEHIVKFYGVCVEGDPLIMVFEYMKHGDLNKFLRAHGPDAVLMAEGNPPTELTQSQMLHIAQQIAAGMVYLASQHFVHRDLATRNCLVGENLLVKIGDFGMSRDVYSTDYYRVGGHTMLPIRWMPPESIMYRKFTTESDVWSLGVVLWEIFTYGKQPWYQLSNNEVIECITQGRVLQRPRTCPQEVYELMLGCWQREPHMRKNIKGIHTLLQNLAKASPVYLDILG

Which results are given for “YGRKKRRQRRRCNPMGYTKEGC [tat-cyclotraxin-B]”?
TrkB inhibition compared with cyclotraxin-B (human TrkB receptor): similarly to cyclotraxin-B; TrkB inhibition compared with cyclotraxin-B [1]: similarly to cyclotraxin-B; decrease in TrkB activity, slice incubation (TrkB in brain slices): 52.0±3.9%; detection in brain after intravenous injection [2]: detected in many brain structures; EPM number of entries in open arms (mice): significantly increased; EPM time spent in open arms (mice): significantly increased
